Columns and labels:
Type in all cases: biochemical
[1] = biological target: T1, PKC-delta (Homo sapiens, UniProt Q05655); assay: In vitro kinase assay: peptide phosphorylation by PKC-delta; conditions: for PKC delta phosphorylation: normalized to best substrate;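 as to PKC delta phosphorylation: peptide concentration 10 nM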
T1 construct: purchased Calbiochem
Summary of the method: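 Biotin-Lys-dansyl-Lys-Pro-Pro-Gly-linked proteomic peptides (12–21-residue core) phosphorylated by PKC-delta in HEPES/Triton/CaCl2/MgCl2 buffer with phosphatidyl serine and PMA, 100 μM [γ-32P]ATP, 30° C., ~10 min, stoichiometry ≤5%; streptavidin-plate capture. Signal normalized as % of best peptide substrate.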

[2] = biological target: T2, PKA (Homo sapiens, UniProt P17612); assay: In vitro kinase assay: peptide phosphorylation by PKA; conditions: normalized to best substrate
T2 construct: purchased Calbiochem
Procedure: (§1) Catalytically active preparations of the kinases of interest were either purchased or prepared. Purchased and tested active kinase preparations including the following: PKC-alpha, PKC-delta, PKC-epsilon, PKC-zeta, PKC-mu, PKA, PKG from Calbiochem, ROK alpha/ROCK-II, active from Upstate Biotechnology, and AKT1 from Panvera.
(§2) The conditions of the kinase assay and the amount of active kinase used varied with the kinase and with the accuracy needed. For a typical experiment, 5-20 ng of kinase was used per well and each peptide pool was assayed in duplicate wells. Note that the absolute amount of kinase used was not usually a critical parameter, because the desired information related to specificity of the kinase not its absolute activity, and robustness of the assay depends on comparisons of the same amount of kinase on different peptides. The combination of kinase concentration and assay duration was modified to assure that the stoichiometry of peptide phosphorylation never exceeded 5%. The choice of kinase buffer depended on the kinase being analyzed. For studies of PKC, 100 mM HEPES, 0.05% Triton-X100, 1 mM CaCl2, 20 mM MgCl2, 0.2 mg/ml phosphatidyl serine (Avanti Polar Lipids), PMA 100 ng/ml was typically used. The lipid stock was prepared by transferring 3 mg phosphatidyl serine into iced mixture of 450 μl water plus 50 μl of 10% Triton-X100, sonicating 10 times on ice for 1 sec each.
(§3) The kinase reaction mixture was assembled by sequential addition to a tube held on ice of: 5 μl peptide (100 μM for final concentration of 10 μM), 15 μl of kinase (typically 5 ng/well, in appropriate kinase buffer), 30 μl of ATP (1 uCi/well of ^32P-gamma ATP in a stock of 167 μM cold ATP in the kinase buffer; for final concentration for 100 μM ATP). The mixture was rapidly warmed to desired reaction temperature (30° C. for PKC) and incubated for the desired duration (usually 10 minutes). The kinase assay was terminated by transfer to 4° C. water batch, and rapid addition of an equal volume (50 μl) of stop solution [0.1M ATP+0.1M EDTA in water, pH 8].
(§4) The peptides were then captured from the reaction mixture by transfer to a Reacti-Bind Streptavidin High Binding Capacity Coated Plates (HBC) (Pierce Biotechnology) as follows. The HBC plates were pre-rinsed three times with PBS/Tween PBS/Tween20 0.05% (PBS/Tween). Part of all of the reaction mixture was then transferred wells of a HBC plate pre-filled with 90 μl of phosphate-buffered saline (PBS); typically each aliquots of each phosphorylation reaction were transferred to duplicate HBC plates to assure accuracy by additional replication
(§5) For kinase assays done at the standard peptide concentration of 10 μM, the peptide concentration in the reaction mixture becomes 5 μM after addition of the stop solution; consequently 10 μl of the reaction (50 pMoles of peptide) was transferred to the HBC plate. More generally, the amount of reaction mixture transferred was estimated to be about 50 pMoles of peptide. […] The HBC plates were incubated for 0.5 to 1.5 hr at room temperature for complete binding of biotinylated peptides to plate-bound streptavidin. The HBC plates were then washed extensively with PBS/Tween. Five washes were done routinely and additional wash steps were added if the wash solution removed from the plate had measurable radioactivity as detected using a Geiger counter. This step is essential to obtaining a good the signal to noise ratio because the fraction of radioactivity incorporated in the peptides was a tiny fraction of the total in the reaction mixture. The wells were air-dried. A volume of 40-50 μl of microScint-20 (Packard Instruments) was added to each well. The plates were covered with stick-on film sheet. Radioactive emissions were measured in a TopCount NXT Microplate Scintillation and Luminescence Counter (Packard Instruments). Typically samples were counted for 5 minutes (or more) to improve the signal to noise ratio when counts were low. […]

[3] = biological target: T3, AKT1 (Homo sapiens, UniProt P31749); assay: In vitro kinase assay: peptide phosphorylation by AKT1; conditions: normalized to best substrate
T3 construct: purchased Panvera
T3 sequence (P31749 whole entry, species assumed): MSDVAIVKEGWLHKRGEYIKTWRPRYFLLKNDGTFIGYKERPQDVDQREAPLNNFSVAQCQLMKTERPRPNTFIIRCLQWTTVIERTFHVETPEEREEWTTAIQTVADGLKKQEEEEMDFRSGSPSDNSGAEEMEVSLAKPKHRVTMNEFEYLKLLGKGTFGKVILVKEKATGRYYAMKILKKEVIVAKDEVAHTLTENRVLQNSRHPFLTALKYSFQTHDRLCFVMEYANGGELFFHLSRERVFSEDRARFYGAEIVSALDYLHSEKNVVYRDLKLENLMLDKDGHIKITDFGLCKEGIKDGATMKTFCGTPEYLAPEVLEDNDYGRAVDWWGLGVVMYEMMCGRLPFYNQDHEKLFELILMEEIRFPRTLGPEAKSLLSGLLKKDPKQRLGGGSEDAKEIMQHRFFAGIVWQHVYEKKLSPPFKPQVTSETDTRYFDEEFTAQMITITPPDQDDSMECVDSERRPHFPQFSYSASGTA
Procedure: as §1, §2, §3, §4, §5

T1 sequence (Q05655 whole entry): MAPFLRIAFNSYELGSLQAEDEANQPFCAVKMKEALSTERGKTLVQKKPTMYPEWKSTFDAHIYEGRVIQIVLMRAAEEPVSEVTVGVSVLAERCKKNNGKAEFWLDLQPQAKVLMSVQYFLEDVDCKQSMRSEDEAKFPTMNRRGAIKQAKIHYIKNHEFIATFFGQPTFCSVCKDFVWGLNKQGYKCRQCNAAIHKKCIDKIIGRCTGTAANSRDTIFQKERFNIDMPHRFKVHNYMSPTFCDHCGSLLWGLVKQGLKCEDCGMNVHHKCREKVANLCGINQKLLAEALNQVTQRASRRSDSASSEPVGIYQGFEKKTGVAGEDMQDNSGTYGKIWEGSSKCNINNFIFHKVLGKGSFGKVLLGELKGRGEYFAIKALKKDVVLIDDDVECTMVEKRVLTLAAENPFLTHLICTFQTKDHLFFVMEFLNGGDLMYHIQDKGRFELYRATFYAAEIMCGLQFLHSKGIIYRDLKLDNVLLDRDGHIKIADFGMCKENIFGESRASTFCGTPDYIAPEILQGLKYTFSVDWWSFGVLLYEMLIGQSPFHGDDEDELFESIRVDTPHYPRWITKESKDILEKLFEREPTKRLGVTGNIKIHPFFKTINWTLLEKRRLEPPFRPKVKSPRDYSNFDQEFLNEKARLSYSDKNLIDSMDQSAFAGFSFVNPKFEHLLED

Substance	PKC delta phosphorylation [1]	PKA phosphorylation [2]	AKT1 phosphorylation [3]	phosphorylation by PKC-delta ([1]; peptide concentration 1 uM)	phosphorylation by PKC-delta ([1]; peptide concentration 10 uM)
94 (KLAVGRHSFSRRSGV) [compound 94]	12%	5%	9%		
111 (KKKRFSFKKSFKLSGFSFKK) [compound 111]	16%	3%	3%		
79 (NRKKKRTSFKRKA) [compound 79]	66%	3%	7%		
78 (KFARKSTRRSIRLPE) [compound 78]	52%	5%	2%		
92 (DGQKRKKSLRKKLD) [compound 92]	17%	18%	2%		
83 (RKIPKRPGSVHRTPSRQ) [compound 83]	38%	2%	6%		
100 (WKGKRRSKARKKRK) [compound 100]	22%	2%	3%		
113 (GENVLKKSMKSRVKG) [compound 113]	4%	0%	9%		
77 (KKKKRASFKRKSSKKG) [compound 77]	76%	4%	8%		
107 (QKRHARVTVKYDRRE) [compound 107]	10%	2%	3%		
93 (AARKKRISVKKKQEQ) [compound 93]	35%	1%	7%		
108 (KATTKKRTLRKNDRK) [compound 108]	6%	0%	1%		
85 (RFARKGSLRQKNV) [compound 85]	34%	81%	10%		
84 (QKKSRLRRRASQLKI) [compound 84]	34%	63%	10%		
82 (PRLIRRGSKKRPAR) [compound 82]	40%	10%	9%		
109 (KEVVRTDSLKGRRGR) [compound 109]	7%	1%	2%		
89 (EYLERRASRRRAV) [compound 89]	20%	4%	1%		
103 (LLKKRDSFRTPRDSKLE) [compound 103]	12%	3%	7%		
90 (AQIVKRASLKRGKQ) [compound 90]	32%	3%	3%		
112 (KRPGKKGSNKRPGKR) [compound 112]	8%	0%	3%		
96 (RGFLRSASLGRRASFHLE) [compound 96]	18%	86%	32%		
95 (KKKFRTPSFLKKSKK) [compound 95]	25%	2%	9%		
141 (VTDSQKRREILSRRPSYRKI) [compound 141]				43	21
161 (KYKAFIRIPIPTRRHTFRRQ) [compound 161]				22	14

Substance	PKC delta phosphorylation [1]	PKA phosphorylation [2]	AKT1 phosphorylation [3]	phosphorylation by PKC-delta ([1]; peptide concentration 1 uM)	phosphorylation by PKC-delta ([1]; peptide concentration 10 uM)
102 (AGSFKRNSIKKIV) [compound 102]	14%	5%	6%		
99 (AGWRKKTSFRKPKED) [compound 99]	17%	1%	6%		
160 (PFEVVWYKDKRQLRSSKKYK) [compound 160]				25	31
80 (KKKKKRFSFKKSFKL) [compound 80]	24%	3%	6%		
124 (PRLIRRGSKKRPAR) [compound 124]				69	43
130 (EYLERRASRRRAV) [compound 130]				46	20
126 (KAIKAIEGGQKFARKSTRRS) [compound 126]				47	43
106 (EILSRRPSYRKILND) [compound 106]	9%	30%	12%		
118 (RPQNTLKASKKKKRASFKRK) [compound 118]				73	60
145 (ISDFGLAKKLAVGRHSFSRR) [compound 145]				34	23
146 (QAQRQIKRGAPPRRSSIRNA) [compound 146]				33	14
147 (RDIRQSPKRGFLRSASLGRR) [compound 147]				27	13
116 (EEGTFRSSIRRLSTRRR) [compound 116]				75	41
155 (RWDKRRWRKIPKRPGSVHRT) [compound 155]				30	23
165 (TEEKSKKRKKKHRKNSRKHK) [compound 165]				25	19
159 (LYARLARAYRRSQRASFKRA) [compound 159]				15	12
128 (QQVDRERPHVRRRRGTFKRS) [compound 128]				46	57
101 (GAPPRRSSIRNAH) [compound 101]	13%	100%	12%		
122 (RAITSTLASSFKRRR) [compound 122]				55	24
105 (ALRRPSLRREADD) [compound 105]	9%	84%	12%		
104 (EKIKRSSLKKVDSLKK) [compound 104]	10%	1%	2%		
110 (EGGDRRASGRRK) [compound 110]	5%	1%	1%		
86 (RQRKRKLSFRRRTDKD) [compound 86]	42%	87%	39%		
